Results on five molecules are retold here after paper PMC3756998, “Use of a Small Peptide Fragment as an Inhibitor of Insulin Fibrillation Process: A Study by High and Low Resolution Spectroscopy” (PLoS ONE, 2013).

“And” between values parts separate entries of the source, which are not always exact repeats. Equal entries are not always repeated. “Also recorded” adds a separate entry of the source. Where two headings read alike, the source gives them in different places. Ends that are not written are not given here.

Data set [1] concerns the target T1, insulin (Bos taurus, UniProt P01317).
T1 construct: Insulin consists of two polypeptide chains (Chain A –21 residues; Chain B –30 residues) held together by two disulphide bonds; purchased Sigma (St. Louis, MO)
The data set is described as follows: biochemical. In kind it is binding, bovine. The note with it: apparent Kd.

Another data set relates to human red blood cells. The note with it: red cells of human, 1 h, 250 µM.
Data set [2] deals with insulin. The note with it: literature, cited from earlier work. The text has this:
These agents routed via natural source or synthetic pathways are generally termed as amyloid inhibitors. The idea behind such anti-amyloid agent is to inhibit the creation of amyloidogenic aggregate and/to arrest the amyloid construction.

Data set [3] deals with T1, insulin. Type of data set: biochemical, bovine. The note with it: pH 2.6.
The target of data set [4] is T1, insulin. Type of data set: biochemical, bovine. The note with it: pH 2.6. The source holds these as a separate data set.
A further data set concerns insulin fibrils. In kind it is biochemical, bovine. The note with it: pH 2.6.
Data set [5] deals with T1, insulin. In kind it is biochemical, bovine. The note with it: pH 2.6. This is another data set of the same source.
Data set [6] deals with T1, insulin. In kind it is biochemical, bovine.

T1 sequence (P01317 25-54 limits assumed): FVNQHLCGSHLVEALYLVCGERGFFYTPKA
T1 sequence (P01317 85-105 limits assumed): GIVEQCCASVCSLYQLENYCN

In general, viability refers to the share of living cells, or the viability signal relative to a control. With Triton X 100 [reference compound], in the data set with HT1080 cells, the viability was 20%.
As to NIVNVSLVK [NK9, NIVNVSLVK], in the data set with HT1080 cells, the cytotoxicity result is reported as “less than 5%”. The Kd at insulin [1] was 2200 nM and 1200 nM. In addition, the hemolysis result in the data set with human red blood cells is “less than 0.5%”.
`OCC(F)(F)F` [trifluoroethanol]: the “effect on insulin fibrillation (in words)” value in the data set on insulin [2] (ref [23]) was “on binding with insulin trimer prevented the appearance of soluble oligomers; also recorded: could delay the fibrillation of insulin by interfering with the oligomer to monomer dissociation step”.
As to “Insulin: 51-residue protein hormone; bovine insulin, two chains held together by two disulphide bonds”, in the data set with insulin [3], the “Apparent Rate Constant” value came out at 2.9 ± 0.13 h⁻¹; the “Lag Time” value is 120 min and 120 ± 5 min. Moreover, the “helix content of insulin (CD)” value with insulin [4] is 39%. In the data set with insulin fibrils, the “fibril morphology by TEM” value is “branched insulin fibrils”. For the same molecule, in the data set with insulin [5], the hydrodynamic radius is recorded as 2.0 nm, the “size of insulin monomer formed” value was 1.3 nm and the “size of large oligomer” value came out at 24 nm. For the same molecule, in the data set with insulin [6], the “cross beta structure formation / helix loss of insulin (FT-IR, in words)” value is given as “forms the cross beta structure indicative of fibrils beyond 2 h; also recorded: significant increases in the A1628/A1654 ratio was observed after 2 h of incubation” and the “β-sheet content of mature fibrils (FT-IR)” value is on record as ~60%.
With `O=c1c(O)c(-c2ccc(O)c(O)c2)oc2cc(O)cc(O)c12` [quercetin], the “effect on insulin fibrillation (in words)” value in the data set on insulin [2] (ref [45]–[46]) is “interfered with the dissociation of the oligomeric insulin to monomer and also destabilized preformed insulin fibril”.
